The supplement of paper PMC10724198
± gives the standard deviation of the averaged measurements.

Test system: Saccharomyces cerevisiae
Test: protein stability index of tFT-peptide fusion (C-terminal peptide) (PSI (0-1 scale)); higher = more stable (slower turnover)
Details: temperature: 30 C
Description: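 MPS profiling in S. cerevisiae of the yeast C-terminome library: the last 12 aa of each annotated ORF are fused to the C-terminus of a sfGFP-mCherry timer, after a GGGS linker. Cells are FACS-sorted into 8 mCherry/sfGFP bins and deep-sequenced. PSI runs from 0 (unstable) to 1 (stable); wild type and das1Δ backgrounds, two technical replicates each.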

[1] = genetic background: das1 deletion

AAKYLNSLSVNQ [PTP1 C-terminal 12 aa]
protein stability index [1]: 0.698 ± 0.029 | protein stability index (genetic background: wild type): 0.686 ± 0.043

ACDNSGLIGIFQ [VPS15 C-terminal 12 aa]
protein stability index [1]: 0.723 ± 0.02 | protein stability index (genetic background: wild type): 0.681 ± 0.069

ACFTRLPTPAIL [TRM8 C-terminal 12 aa]
protein stability index [1]: 0.68 ± 0.0089 | protein stability index (genetic background: wild type): 0.6593 ± 0.0055

ACFVFSPSAMVT [BRP1 C-terminal 12 aa]
protein stability index [1]: 0.6493 ± 0.0022 | protein stability index (genetic background: wild type): 0.637 ± 0.028

ADARDKFVDLYN [ADD66 C-terminal 12 aa]
protein stability index [1]: 0.696 ± 0.027 | protein stability index (genetic background: wild type): 0.708 ± 0.1

ADRASVEIIDAN [PFA3 C-terminal 12 aa]
protein stability index [1]: 0.705 ± 0.021 | protein stability index (genetic background: wild type): 0.7046 ± 0.0057

ADWKAQRGEDGK [PNG1 C-terminal 12 aa]
protein stability index [1]: 0.67376 ± 7.2e-05 | protein stability index (genetic background: wild type): 0.703 ± 0.014

AEHHLQTFLSEK [ISC1 C-terminal 12 aa]
protein stability index [1]: 0.6488 ± 0.0013 | protein stability index (genetic background: wild type): 0.641 ± 0.02

AELILETSYDKF [MRX1 C-terminal 12 aa]
protein stability index [1]: 0.729 ± 0.011 | protein stability index (genetic background: wild type): 0.722 ± 0.055

AESPEEADVEMS [PUP2 C-terminal 12 aa]
protein stability index [1]: 0.6788 ± 0.0056 | protein stability index (genetic background: wild type): 0.707 ± 0.052

AFLKIFENAMPN [ADD37 C-terminal 12 aa]
protein stability index [1]: 0.725 ± 0.019 | protein stability index (genetic background: wild type): 0.678 ± 0.0089

AFRSLQKSKKKK [PKH3 C-terminal 12 aa]
protein stability index [1]: 0.717 ± 0.042 | protein stability index (genetic background: wild type): 0.793 ± 0.034

AGEKTVAELMEN [PYP1 C-terminal 12 aa]
protein stability index [1]: 0.679 ± 0.025 | protein stability index (genetic background: wild type): 0.687 ± 0.022

AGIRKRDWDSTQ [RFM1 C-terminal 12 aa]
protein stability index [1]: 0.717 ± 0.02 | protein stability index (genetic background: wild type): 0.691 ± 0.055

AIQEYNARYPLN [ABF2 C-terminal 12 aa]
protein stability index [1]: 0.708 ± 0.0085 | protein stability index (genetic background: wild type): 0.707 ± 0.021

AKCGEWTPELSS [CPR2 C-terminal 12 aa]
protein stability index [1]: 0.71451 ± 0.00067 | protein stability index (genetic background: wild type): 0.731 ± 0.014

AKERLNPPSNRR [NIP1 C-terminal 12 aa]
protein stability index [1]: 0.708 ± 0.014 | protein stability index (genetic background: wild type): 0.688 ± 0.02

AKGKGKSDEKIL [YIL086C C-terminal 12 aa]
protein stability index [1]: 0.7026 ± 0.0025 | protein stability index (genetic background: wild type): 0.73 ± 0.12

ALNGDCCLWRWV [SWD3 C-terminal 12 aa]
protein stability index [1]: 0.708 ± 0.015 | protein stability index (genetic background: wild type): 0.292 ± 0.013

ALNRADKMSTIG [URH1 C-terminal 12 aa]
protein stability index [1]: 0.676 ± 0.027 | protein stability index (genetic background: wild type): 0.6665 ± 0.0042

ALSEYMENTSGL [RSC9 C-terminal 12 aa]
protein stability index [1]: 0.696 ± 0.059 | protein stability index (genetic background: wild type): 0.728 ± 0.014

ANLFSSKKKAKL [RSB1 C-terminal 12 aa]
protein stability index [1]: 0.803 ± 0.058 | protein stability index (genetic background: wild type): 0.822 ± 0.061

ANRQCYVNGTKT [YDR250C C-terminal 12 aa]
protein stability index [1]: 0.663 ± 0.0094 | protein stability index (genetic background: wild type): 0.69065 ± 0.00059

APAEQTQGEPTK [BMH2 C-terminal 12 aa]
protein stability index [1]: 0.71 ± 0.013 | protein stability index (genetic background: wild type): 0.677 ± 0.012

APDNGPTVEEVD [SSA4 C-terminal 12 aa]
protein stability index [1]: 0.69 ± 0.0087 | protein stability index (genetic background: wild type): 0.662 ± 0.023

APEEEAYKPNQN [KRR1 C-terminal 12 aa]
protein stability index [1]: 0.708 ± 0.0089 | protein stability index (genetic background: wild type): 0.671 ± 0.012

APRLRLEDIFQQ [RET1 C-terminal 12 aa]
protein stability index [1]: 0.752 ± 0.011 | protein stability index (genetic background: wild type): 0.7 ± 0.052

AQGKLIMNVEKF [AST1 C-terminal 12 aa]
protein stability index [1]: 0.712 ± 0.05 | protein stability index (genetic background: wild type): 0.689 ± 0.019

AQQNYRLWLSSF [ICY1 C-terminal 12 aa]
protein stability index [1]: 0.7166 ± 0.0069 | protein stability index (genetic background: wild type): 0.6246 ± 0.0033

ARGYVNVMDNIQ [SEC16 C-terminal 12 aa]
protein stability index [1]: 0.6727 ± 0.0025 | protein stability index (genetic background: wild type): 0.678 ± 0.042

ARIWKYKKIAPN [TUP1 C-terminal 12 aa]
protein stability index [1]: 0.726 ± 0.0075 | protein stability index (genetic background: wild type): 0.706 ± 0.0071

ARMLARECRRHM [CDC23 C-terminal 12 aa]
protein stability index [1]: 0.7022 ± 0.00087 | protein stability index (genetic background: wild type): 0.698 ± 0.054

ASRFAQFLKQDA [MET16 C-terminal 12 aa]
protein stability index [1]: 0.717 ± 0.012 | protein stability index (genetic background: wild type): 0.764 ± 0.15

ATALSGHKANCN [MTQ1 C-terminal 12 aa]
protein stability index [1]: 0.6878 ± 0.0049 | protein stability index (genetic background: wild type): 0.6424 ± 0.0012

ATFFRYLSNIFT [AGP3 C-terminal 12 aa]
protein stability index [1]: 0.723 ± 0.0077 | protein stability index (genetic background: wild type): 0.698 ± 0.0078

ATLINILLELFS [ECM27 C-terminal 12 aa]
protein stability index [1]: 0.632 ± 0.014 | protein stability index (genetic background: wild type): 0.63 ± 0.018

ATSTAAAADKKT [HAP2 C-terminal 12 aa]
protein stability index [1]: 0.6674 ± 0.0023 | protein stability index (genetic background: wild type): 0.724 ± 0.04

AVHLQAIDLLNC [PIR1 C-terminal 12 aa]
protein stability index [1]: 0.714 ± 0.024 | protein stability index (genetic background: wild type): 0.672 ± 0.01

AVIVHSYTVQHM [TRM3 C-terminal 12 aa]
protein stability index [1]: 0.695 ± 0.032 | protein stability index (genetic background: wild type): 0.632 ± 0.046

AVKINRNGKPRI [TAO3 C-terminal 12 aa]
protein stability index [1]: 0.698 ± 0.014 | protein stability index (genetic background: wild type): 0.6846 ± 0.0048

AVVLQSIQFTSE [IML3 C-terminal 12 aa]
protein stability index [1]: 0.621 ± 0.018 | protein stability index (genetic background: wild type): 0.608 ± 0.024

AWDKFKLQNDIN [SWA2 C-terminal 12 aa]
protein stability index [1]: 0.736 ± 0.015 | protein stability index (genetic background: wild type): 0.698 ± 0.03

AYFIDVVGCSGL [LIH1 C-terminal 12 aa]
protein stability index [1]: 0.706 ± 0.00073 | protein stability index (genetic background: wild type): 0.705 ± 0.025

AYLLFYTIRQVN [UBP8 C-terminal 12 aa]
protein stability index [1]: 0.366 ± 0.012 | protein stability index (genetic background: wild type): 0.14 ± 0.011

AYQIRQEVLQSL [SGA1 C-terminal 12 aa]
protein stability index [1]: 0.65923 ± 0.00056 | protein stability index (genetic background: wild type): 0.672 ± 0.012

AYVLFYHRVYGV [DOA4 C-terminal 12 aa]
protein stability index [1]: 0.691 ± 0.011 | protein stability index (genetic background: wild type): 0.648 ± 0.026

CDIQEEQVDITA [PUP1 C-terminal 12 aa]
protein stability index [1]: 0.695 ± 0.0088 | protein stability index (genetic background: wild type): 0.682 ± 0.015

CEYGTNAIDALI [YER091C-A C-terminal 12 aa]
protein stability index [1]: 0.7311 ± 0.0014 | protein stability index (genetic background: wild type): 0.6917 ± 0.0036

CICSGMLFEMDG [SIN4 C-terminal 12 aa]
protein stability index [1]: 0.696 ± 0.011 | protein stability index (genetic background: wild type): 0.716 ± 0.067

CIPLINYHLRKS [CBS1 C-terminal 12 aa]
protein stability index [1]: 0.709 ± 0.022 | protein stability index (genetic background: wild type): 0.673 ± 0.023

CKDQTVTQILAT [DMO1 C-terminal 12 aa]
protein stability index [1]: 0.6533 ± 0.0054 | protein stability index (genetic background: wild type): 0.682 ± 0.029

CLCLINLCCDVF [YDR034W-B C-terminal 12 aa]
protein stability index [1]: 0.267 ± 0.0034 | protein stability index (genetic background: wild type): 0.295 ± 0.0068
